US20220403048A1, “BINDING MOLECULES TO ARGINASE II [ARG2]” (Cancer Research Technology Limited, priority 2019, published 2022)
Changes are numbered by the printed parent chain.

Columns and labels:
[1] = target: T1, human ARG2 (Homo sapiens, UniProt P78540, E275H/R327K); experiment: Bio-Layer Interferometry (OctetRED) binding kinetics, human ARG2; conditions: second-generation Fab; extended assay: association 10 min, dissociation 40 min, 0.47 to 30 nM, streptavidin surface with bio-ARG2
T1 construct: His10 (after a GGG linker) (C); made in house; host or cells: E. coli BL21 (DE3)
T1 sequence (P78540 23-354 E275H/R327K): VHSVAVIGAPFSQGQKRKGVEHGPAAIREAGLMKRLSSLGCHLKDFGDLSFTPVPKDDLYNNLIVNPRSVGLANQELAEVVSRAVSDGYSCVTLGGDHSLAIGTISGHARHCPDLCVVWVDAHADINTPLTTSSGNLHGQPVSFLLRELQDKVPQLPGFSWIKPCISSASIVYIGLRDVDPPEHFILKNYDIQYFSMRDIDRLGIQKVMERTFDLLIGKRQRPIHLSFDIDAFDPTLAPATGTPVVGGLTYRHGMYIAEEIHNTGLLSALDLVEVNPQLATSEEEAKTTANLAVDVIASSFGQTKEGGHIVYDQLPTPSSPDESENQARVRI
Method in brief: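 Fab analytes by BLI in PBS with 0.01% BSA, 0.002% Tween20; biotinylated ARG2 on streptavidin tips, 1.8–120 nM, ~5 min association, ~10 min dissociation. Screening used His-ARG2 on anti-His, glycine pH 1.5 regeneration; extended assay 0.47–30 nM, 10/40 min. Reference-subtracted 1:1 fits gave ka, kd, KD.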

[2] = target: T2, human ARG1 (Homo sapiens, UniProt P05089); experiment: Bio-Layer Interferometry (OctetRED) binding, human ARG1; conditions: Fab analyte up to 120 nM, screening assay on anti-His surface
T2 construct: Avi tag (N); His10 (after a GGG linker) (C); made in house; host or cells: E. coli BL21 (DE3)
T2 sequence (P05089 with tags, fused parts or gaps): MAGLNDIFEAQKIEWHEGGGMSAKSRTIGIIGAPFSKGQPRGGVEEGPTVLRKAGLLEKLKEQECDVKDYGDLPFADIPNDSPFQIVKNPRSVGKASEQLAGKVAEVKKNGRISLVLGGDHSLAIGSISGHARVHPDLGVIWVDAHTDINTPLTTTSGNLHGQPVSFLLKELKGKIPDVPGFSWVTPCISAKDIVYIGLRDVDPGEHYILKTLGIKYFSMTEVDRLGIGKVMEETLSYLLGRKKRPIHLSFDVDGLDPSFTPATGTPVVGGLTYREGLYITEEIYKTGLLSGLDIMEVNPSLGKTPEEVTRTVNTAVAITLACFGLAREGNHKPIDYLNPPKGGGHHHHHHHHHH
Method in brief: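 Human ARG1 binding measured by OctetRED bio-layer interferometry, with Fabs as analyte (typically 1.8 to 120 nM). Association ran 5 min and dissociation 10 min, with regeneration in 10 mM glycine pH 1.5 between cycles.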

[3] = system: cynomolgus ARG2; experiment: Bio-Layer Interferometry (OctetRED) binding kinetics, cynomolgus ARG2; conditions: second-generation Fab; cyno ARG2 ligand; same extended assay
Text: The OctetRED (Pall ForteBio) instrument was used to assess the kinetic parameters of the interactions between C0020187 and recombinantly produced human ARG2, cynomolgus ARG2 and human ARG1. The Octet biosensor uses an optical analytical technique that analyses the interference pattern of white light reflected from two surfaces: a layer of immobilised protein on the sensor tip, and an internal reference layer. Any changes in binding at the biosensor tip result in a shift in interference pattern, which can be measured in real time. Molecules associating with or dissociating from ligands at the biosensor tip shift the interference pattern and generate a response on the Octet system which is recorded by the acquisition software.
Typically, a defined concentration of the analyte species is brought into contact with the coupled ligand and any binding is detected as an increased in signal (association phase). This is followed by a period of buffer rinse, during which dissociation of the analyte species from the surface immobilised ligand can be observed as a decrease in signal (dissociation phase). Repetition of this with a range of analyte concentrations provides data for the analysis of binding kinetics.
An Octet Kinetics Buffer (PBS containing 0.01% BSA and 0.002% Tween20) is typically used as the diluent buffer for the analyte samples and as the flow buffer during the dissociation phase. The experimental data is recorded over time as shift in interference pattern (nm) over time, which is directly proportional to the optical thickness at the biosensor tip, which in turn is an approximate measure of the mass of analyte bound. The proprietary Octet Data Analysis software package can then be used to process data and fit binding models to the data sets. Returned association (ka, M^−1 s^−1) and dissociation (kd, s^−1) rate constants allow calculation of dissociation (KD, M) affinity constants.
The affinity of binding between the Fab of C0020187 and human ARG2, cynomolgus ARG2 and human ARG1 was estimated using assays in which the biotinylated ARG antigen was captured on a streptavidin sensor tip. A fresh sensor tip was used for each measurement and no regeneration was used. A series of dilutions of the C0020187 Fab (3.25-240 nM) were individually placed in contact with the ligand surface for a sufficient amount of time to observe sensorgrams that could be fitted to an appropriate binding model with confidence (typically 5 minutes), followed by an appropriate length of dissociation time (typically 10 minutes). Blank reference (0 nM Fab) data were subtracted from each dataset to reduce the impact of any buffer artefacts or non-specific binding effects. An appropriate binding model was then fitted simultaneously to the data from each analyte titration using the Octet Evaluation software.
Example results for C0020187 are shown in Table 9, showing the association rate constants (ka), dissociation rate constants (kd) and dissociation constants (KD). These parameters were derived from a 1:1 binding fit to the data.
The affinities of the affinity-matured antibodies to human ARG2 were measured on the OctetRED system as described in section 1.15 using the streptavidin capture method. Typically, an analyte titration range of 1.8 to 120 nM was used.
The affinities of some of these antibodies to cynomolgus ARG2 were determined using the same assay, and the derived kinetic parameters are shown in Table 21.

Sequence of cynomolgus ARG2 (as listed by the source): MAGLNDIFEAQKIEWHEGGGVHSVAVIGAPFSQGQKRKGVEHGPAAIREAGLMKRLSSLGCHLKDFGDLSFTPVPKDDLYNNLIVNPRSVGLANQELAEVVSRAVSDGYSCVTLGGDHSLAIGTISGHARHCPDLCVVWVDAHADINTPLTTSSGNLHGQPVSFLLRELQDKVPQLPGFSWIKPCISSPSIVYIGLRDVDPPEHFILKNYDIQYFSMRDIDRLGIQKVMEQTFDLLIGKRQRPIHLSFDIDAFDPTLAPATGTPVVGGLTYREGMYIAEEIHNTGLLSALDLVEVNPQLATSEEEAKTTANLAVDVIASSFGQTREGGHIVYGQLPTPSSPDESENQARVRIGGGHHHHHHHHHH

B1: C0021177: anti-ARG2 antibody, VH SEQ ID NO: 322, VL SEQ ID NO: 327 (antibody, listed as Homo sapiens, V domains shown)
VH: EVQLLESGGGLVQPGGSLRLSCAASGFTFRYEVAAWVRQAPGKGLEWVSAISGPAPKGYYADSVKGRFTISRDNSKNTLYLQMNSLRAEDTAVYYCARLRADLGLYMDLWGRGTLVTVSS
VL: QSELTQPPTASAAPGQKVTISCSGSSSNIGNHYVSWYQQLPGTAPKLLIYDTTVLSSGIPDRFSGSKSGTSATLGITGLQTGDEADYYCGTWDELTSNLVFGGGTKLTVL
modifications: C0021177
B1 was tested, and the ka [1] was 202000 M⁻¹ s⁻¹, the kd [1] was 3.51e-05 s⁻¹ and the “Results, binding to human ARG1 (BLI)” value [2] was “No binding observed”. The ka [3] was 414000 M⁻¹ s⁻¹ and the kd [3] was 3.12e-05 s⁻¹.

B2: C0021180: anti-ARG2 antibody, VH SEQ ID NO: 332, VL SEQ ID NO: 337 (antibody, listed as Homo sapiens, V domains shown)
VH: B1 VH with A55I
VL: QSVLTQPPTVSAAPGRKVTISCSGSSSNIGDHHVSWYQQLPGAAPKLLIYDTDHMASGIPDRFSGSRSGTSATLGITGLQTGDEADYYCGTWDSSLSALVFGGGTKLTVL
modifications: C0021180
With B2 the ka [1] was 278000 M⁻¹ s⁻¹, the kd [1] was 0.000122 s⁻¹ and the “Results, binding to human ARG1 (BLI)” value [2] was “No binding observed”. The ka [3] was 381000 M⁻¹ s⁻¹ and the kd [3] was 0.000135 s⁻¹.

B3: C0021181: anti-ARG2 antibody, VH SEQ ID NO: 342, VL SEQ ID NO: 347 (antibody, listed as Homo sapiens, V domains shown)
VH: EVQLLESGGGLVRPGGSLRLSCAASEFTFRYDYHVWVRQAPGKGLEWVSAISGSGGSTYYADSVKSRFTISRDNSKNTLYLQMNSLRAEDTAVYYCARLRADLGLYMDLWGRGTLVTVSS
VL: QSVLTQPPSVSAAPGQKVAVSCSGSSSNIGSHYVSWYQQLPGTAPKLLIYDNSERTSGIPDRFSGSKSGTSATLGITGLQTGDEADYYCGTWDELTSNLVFGGGTRLTVL
modifications: C0021181
In the case of B3, the ka [1] is reported as 145000 M⁻¹ s⁻¹, the kd [1] is reported as 4.17e-05 s⁻¹ and the “Results, binding to human ARG1 (BLI)” value [2] is reported as “No binding observed”. The ka [3] was 257000 M⁻¹ s⁻¹ and the kd [3] was 4.43e-05 s⁻¹.
